{"source": "the DeepSol protein solubility set", "data": [{"experiment": "soluble on expression in E. coli; label from the status in PepcDB or PDB records", "values": [{"sequence": "AWVDQTPRTATKETGESLTINCVLRDASYGLESTGWYRTKLGSTNEQTISIGGRYVETVNKGSKSFSLRIRDLRVEDSGTYKCGAFRFWLPYGYGSLPLSEKGAGTVLTVK", "soluble on expression in E. coli": "soluble"}, {"sequence": "MGHHHHHHSHLEDFFKNMVKSADGVIVSGVKDVDDFFEHERTFLLEYHNRVKDASAKSDRMTRSHKSAADDYNRIGSSLYALGTQDSTDICKFFLKVSELFDKTRKIEARVSADEDLKLSDLLKYYLRESQAAKDLLYRRSRSLVDYENANKALDKARAKNKDVLQAETSQQLCCQKFEKISESAKQELIDFKTRRVAAFRKNLVELAELELKHAKGNLQLLQNCLAVLNGDT", "soluble on expression in E. coli": "not soluble"}, {"sequence": "MARHFGMALAPWDVMGGGRFQSKKAMEERRKNGECIRSFVGASEQTDAEIKISEALAKVAEEHGTESVTAIAIAYVRSKAKNVFPSVEGGKIEDLKENIKALSIDLTPDNIKYLENVVPFDIGFPNTFIVLNSLTQKYGTNNV", "soluble on expression in E. coli": "soluble"}, {"sequence": "MSLSLWQQCLARLQDELPATEFSMWIRPLQAELSDNTLALYAPNRFVLDWVRDKYLNNINGLLNTFCGADAPQLRFEVGTKPVTQTLKTPVHNVVAPAQTTTAQPQRVAPAARSGWDNVPAPAEPTYRSNVNVKHTFDNFVEGKSNQLARAAARQVADNPGGAYNPLFLYGGTGLGKTHLLHAVGNGIMARKPNAKVVYMHSERFVQDMVKALQNNAIEEFKRYYRSVDALLIDDIQFFANKERSQEEFFHTFNALLEGNQQIILTSDRYPKEINGVEDRLKSRFGWGLTVAIEPPELETRVAILMKKADENDIRLPGEVAFFIAKRLRSNVRELEGALNRVIANANFTGRAITIDFVREALRDLLALQEKLVTIDNIQKTVAEYYKIKIADLLSKRRSRSVARPRQMAMALAKELTNHSLPEIGDAFGGRDHTTVLHACRKIEQLREESHDIKEDFSNLIRTLSSLEHHHHHH", "soluble on expression in E. coli": "not soluble"}, {"sequence": "MGSKYSKATNSINDALSSSYLVPFESYRVPLVDLEEATNNFDHKFLIGHGVFGKVYKGVLRDGAKVALKRRTPESSQGIEEFETEIETLSFCRHPHLVSLIGFCDERNEMILIYKYMENGNLKRHLYGSDLPTMSMSWEQRLEICIGAARGLHYLHTRAIIHRDVKSINILLDENFVPKITDFGISKKGTELGQTHLSTVVKGTLGYIDPEYFIKGRLTEKSDVYSFGVVLFEVLCARSAIVQSLPREMVNLAEWAVESHNNGQLEQIVDPNLADKIRPESLRKFGDTAVKCLALSSEDRPSMGDVLWKLEYALRLQESVIHHHHHH", "soluble on expression in E. coli": "soluble"}, {"sequence": "STTEEESLSAAEEGYNVQRDYWRQAEESDGFDIENIKLPPGMHGRVMGLITYNCQLCYRYPFPVLVKLYAKFGLHRYNLIKGTSFELAALMKFNMLQNYMSSFYMTLLAHDPDPAASSSQKTFQVRVDEQQFGTLGINCSIARPKHEGDLLEVSTKTPFIPHFHGGALGDGIFKGELPDCLSDDALNALMEAVSKDELPEHVLDDALYARAGGIFQGELPDWPSDDALNDGKRFYMLKESEWQATDWISMYLELVITTTDRSITEPEVLSKLEIVKVAIETATKDEEPSNERLKAYRAHFYITFKGLAEPRAPRQVFEIGEHVERQAIVRRVMGHRGDLTLKGKLCGGQYIKRRSLALKSGEESPNCKKQTRVG", "soluble on expression in E. coli": "soluble"}, {"sequence": "MGLIKAATSSVGGGLADQWLEVIEPDNMGDTTVMTKGVFVRKDDKRGSNRKGTDDVLTDGSVVHVYPNMMMLLVDGGKIIDYTAEEGYYTVKNDSAPSMFNGSLKDAIAETFSRFKFGGVTPQKQQVFYINLQEIKGIKFGTPAPLNYFDNFYNAELFLRAHGNYSIKITDPLLFYTNAIPKNQTQVDINDINEQYLAEFITALQAAINQMSADGQRISYVPSKSVELSKYMQTALDEDWRTNRGMEIVSVAVASISYTDDSTKLINMRNEGAMLSDPGVREGYVQGSLARGMEAAGKNEGGAMSGFMGVGMGMNANGNYFAQASQTNQQQMQEKQNQQNAQGATDTWTCPQCGTENTGKFCSNCGTPKPTNEKPKLEMKCSECSEIVDLSNGIPKFCPHCGKPFQGVPLLEHHHHHH", "soluble on expression in E. coli": "soluble"}, {"sequence": "MAHHHHHHMIFVERQTDTENAAYLLAKMLGIHIRNIGMIHGGMQQRQRDYIMNGFKHSQTRILVATDVASRGIDFPDVTCVVNFIAPKSIDRYCHRIGRTGRAGRTGDSFTFIGHSDGCLAKDLVGYLKKCGMEVPQKLLDIAGKYVQYEEQRHLRRSWSGRSGRGFKRQKQDSPAPYQSSSW", "soluble on expression in E. coli": "not soluble"}, {"sequence": "MDFYYLPGSAPCRAVQMTAAAVGVELNLKLTNLMAGEHMKPEFLKINPQHCIPTLVDNGFALWESRAICTYLAEKYGKDDKLYPKDPQKRAVVNQRLYFDMGTLYQRFADYYYPQIFAKQPANAENEKKMKDAVDFLNTFLDGHKYVAGDSLTIADLTVLATVSTYDVAGFELAKYPHVAAWYERTRKEAPGAAINEAGIEEFRKYFEK", "soluble on expression in E. coli": "soluble"}, {"sequence": "MRGFLSGEFELSSVEDAEVVIINSCGVIDFTERKIIRRMLDLKREGKKVVLAGCLTRISKEALSVADSALSPDNLDMVVDAVYSALNGRKLFTERRFIDKAEFSHLKCRLRENAIAIVSISEGCLGKCSFCATKFARGRLRSFSMDAIVREAERAVRAGYREIQLTSQDTGAYGMDKGRAMLPELLRKISEIEGEFRVRVGMMNPQHAVRMLDELINAYSSEKIYKFLHIPVQSGDNRILEDMKRNHTVEDYVEVVEAFRNSFDDVLISTDIIVGFPTETEEAFWKSYELIKETRPDIVNITRYSARKGTPAARLRDIPGWIKKERSRKLTDLMRKIGLENNKRFVGKKLRVLVTKEGKNGRNLARMNSYRAVVTEGAVGEFVEVKIKDCRFNYLIGQLAAEQPQLEHHHHHH", "soluble on expression in E. coli": "not soluble"}, {"sequence": "FCNAFTPVKAKEVKALILDFLHTNKITLQREIESSFITSAIIAHTGIDAFSISLLLDKNK", "soluble on expression in E. coli": "not soluble"}, {"sequence": "GSHMKFTRVCDRRDVPEGEALKVESGGTSVAIFNVDGELFATQDRCTHGDWSLSDGGYLEGDVVECSLHMGKFCVRTGKVKSPPPCEALKIFPIRIEDNDVLVDFEAGYLAP", "soluble on expression in E. coli": "soluble"}, {"sequence": "GKSIFDKLWDRHVITGKEGEPQLMYVDQHYIHEVTSPQAFQGLRDAGRKVRRPDLTFGTFDHNVPTVNIYDIRDVISKAQMDALARNVIEFNIPHADHGSENQGIVHMVGPETGRTQPGKFIVCGDSHTATHGAFGAIGFGIGTTEVEHVFATQTIWQVKPKK", "soluble on expression in E. coli": "not soluble"}, {"sequence": "MGSDKIHHHHHHMRIVLGVSSGIAIYKAVDLASKLRKEGHELHVVMTPDATRMISPVVFSAVGNCSVYHDWMDVRNGWIPHTEISRTADVLVVAPATANTISKIANGIADNLLTLVALAFDKDAKILVPTMNYRMYSNKLFQENLEKLKNNGWFVVEPEEGHLACGEVGKGRYPENEKIVEAVHLLTFPKKLAGKKVLITAGPTRERIDAVRFITNASSGKMGYALATVAKRMGARVSLVSGPTSLKPPYYVDEFVKVESAEEMYEEVMKRFEDTDIVIMNAAVGDYRPKKVFEGKLKKTENDLVLHLERTKDILKELGQRKSNQILVGFAAEVENFEENAVKKLREKNLDLLVLNDARKAFSSDRVEVYIYGRDGFIKRIDEDDKIRVACGILDVVSNLAGGSPS", "soluble on expression in E. coli": "not soluble"}, {"sequence": "MEYKSSPKRPYYLRGFYDWLVDNSFTPYLVVDATYLGVNVPVEYVKDGQIVLNLSASATGNLQLTNDFIQFNQRFKGVSRELYIPMGAALAIYARENGDGMMFEPEEIYDELNIEPDTEQPTGFYEAVD", "soluble on expression in E. coli": "soluble"}, {"sequence": "MGHHHHHHSHMFVSDFRKEFYEVVQSQRVLLFVASDVDALCACKILQALFQCDHVQYTLVPVSGWQELETAFLEHKEQFHYFILINCGANVDLLDILQPDEDTIFFVCDTHRPVNVVNVYNDTQIKLLIKQDDDLEVPAYEDIFRDEEED", "soluble on expression in E. coli": "soluble"}, {"sequence": "MRFNHFSIVDKNFDEQLAELDQLGFRWSVFWDEKKILKDFLIQSPSDMTALQATAELDVIEFLKSSIELDWEIFWNIALQLLDFVPNFDFEIGKAFEYAKNSNLPQIEAEMTTENIISAFYYLLCTRRKTGMILVEHWVSEGLLPLDNHYHFFNDKSLATFDSSLLEREVLWVESPVDSEQRGENDLIKIQIIRPKSTEKLPVVMTASPYHLGINDKANDLALHDMNVELEEKTSHEIHVEQKLPQKLSAKAKELPIVDKAPYRFTHGWTYSLNDYFLTRGFASIYVAGVGTRSSDGFQTSGDYQQIYSMTAVIDWLNGRARAYTSRKKTHEIKASWANGKVAMTGKSYLGTMAYGAATTGVEGLELILAEAGISSWYNYYRENGLVRSPGGFPGEDLDVLAALTYSRNLDGADFLKGNAEYEKRLAEMTAALDRKSGDYNQFWHDRNYLINTDKVKADVLIVHGLQDWNVTPEQAYNFWKALPEGHAKHAFLHRGAHIYMNSWQSIDFSETINAYFVAKLLDRDLNLNLPPVILQENSKDQVWTMMNDFGANTQIKLPLGKTAVSFAQFDNNYDDETFKKYSKDFNVFKKDLFENKANEAVIDLELPSMLTINGPVELELRLKLNDTKGFLSAQILDFGQKKRLEDKVRVKDFKVLDRGRNFMLDDLVELPLVESPYQLVTKGFTNLQNQSLLTVSDLKADEWFTIKFELQPTIYHLEKADKLRVILYSTDFEHTVRDNRKVTYEIDLSQSKLIIPIESVKN", "soluble on expression in E. coli": "soluble"}, {"sequence": "GMTTEVKQSPRERLLEAAAALTYRDGVGIGVEALCKAAGVSKRSMYQLFESKDELLAASLKERSAAFVAKALPPADDGRSPRERILYVFERVESQAGAPDFQGCRYLAVQIELKDQAHPASRVAYQIKADLMAFFRSEAERGGASDPDLLARQLILVFDGASARAGIGADNLTGLIVPTLTTLLDAADMH", "soluble on expression in E. coli": "soluble"}, {"sequence": "DAAPAAGSTLDKIAKNGVIVVGHRESSVPFSYYDNQQKVVGYSQDYSNAIVEAVKKKLNKPDLQVKLIPITSQNRIPLLQNGTFDFECGSTTNNVERQKQAAFSDTIFVVGTRLLTKKGGDIKDFADLKGKAVVVTSGTTSEVLLNKLNEEQKMNMRIISAKDHGDSFRTLESGRAVAFMMDDALLAGERAKAKKPDNWDIVGKPQSQEAYGCMLRKDDPQFKKLMDDTIAQVQTSGEAEKWFDKWFKNPIPPKNLNMNFELSDEMKALFKEPNDKALNLEHHHHHH", "soluble on expression in E. coli": "soluble"}, {"sequence": "MQKKSIYVAYTGGTIGMQRSDNGYIPVSGHLQRQLALMPEFHRPEMPDFTIHEYAPLIDSSDMTPEDWQHIANDIQQNYDLYDGFVILHGTDTMAFTASALSFMLENLAKPVIITGSQIPLAELRSDGQTNLLNALYLAANHPVNEVSLFFNNQLFRGNRTTKAHADGFDAFASPNLSVLLEAGIHIRRQSSVVSPTSNGPLIVHRITPQPIGVVTIYPGISGAVVRNFLLQPVKALILRSYGVGNAPQKAELLDELKNASDRGIVVVNLTQCISGSVNMGGYATGNALAQAGVISGFDMTVEAALTKLHYLLSQSLSPNEIRQLMQQNLRGELTDTQ", "soluble on expression in E. coli": "soluble"}, {"sequence": "MGSDKIHHHHHHMATTLFIQRGDIAAWLADTAATHTVYAPLRDKTGVRFHRLCAQDAAAQTQALELDRQAQTPPKNVLLPACETLLEFSYAKQEDGSTSLDVQPVMPQGAVLLFGPRPCDARAFTVFDRVYDAGRGKDPYYTARRAATVVASVVCTRPEQSCFCTAVGGAPDDTEGSDILFTPVQDGFIVRPLTQAAEAVLRHPLFTEAAHREEEAADVCAAARAAVPCAPADFTAAPEPVAALFDDMEFWQSVTAKCLSCGACTYLCPTCYCFNITDESNGLEGRRLRTWDNCMSFQFTLEGSGHNPRPTKAHRYRNRIGHKFSYYPRIHDGALSCVGCGRCISSCPVTMDIRRIVHSAMQRAQCATPEQAHE", "soluble on expression in E. coli": "not soluble"}, {"sequence": "MGSDKIHHHHHHMSGTHDTKQAIASALIELCEQKDFRKISVQDITKKVGLNRQTFYYHFTDKYDLLRWIYRHDALIYLETDICLENWEEQALKLLKAIKEKSHFYYTTVTSDSEVLLNVFSASTNRLFISLFEQVDVENHLTDKDKQFYANFFSYGCSGVLTKWILEEYPQTPLEMATQLFRLAKDTEFMAYHLYEQEANE", "soluble on expression in E. coli": "not soluble"}]}]}
